The data set deals with gelatin.

B1: recombinant stem bromelain (protein)
chain: SRDEPNDPMMKRFEEWMAEYGRVYKDDDEKMRRFQIFKNNVKHIETFNSRNENSYTLGINQFTDMTKSEFVAQYTGVSLPLNIEREPVVSFDDVNISAVPQSIDWRDYGAVNEVKNQNPCGSCWSFAAIATVEGIYKIKTGYLVSLSEQEVLDCAVSYGCKGGWVNKAYDFIISNNGVTTEENYPYLAYQGTCNANSFPNSAYITGYSYVRRNDERSMMYAVSNQPIAALIDASENFQYYNGGVFSGPCGTSLNHAITIIGYGQDSSGTKYWIVRNSWGSSWGEGGYVRMARGVSSSSGVCGIAMAPLFPTLQSGANAEVIKMVSET
The protein B1 yielded a Diameter of halo zones (mm), Average of 9 mm; a Diameter of halo zones (mm), Plate 1 of 8 mm; a Diameter of halo zones (mm), Plate 2 of 10 mm; a Diameter of halo zones (mm), Plate 3 of 9 mm.

Values taken from patent publication US20110151541.
